Our source for the Kd values is publication PMC7927077, “Glucose-Binding of Periplasmic Protein GltB Activates GtrS-GltR Two-Component System in Pseudomonas aeruginosa” (Microorganisms, 2021).

The target in assay [1] is 6His-GtrS^LBD, the N-terminal 6His-tagged ligand-binding domain of GtrS (residues 29-199) (P. aeruginosa PAO1) (UniProt Q9HZ47). Kind of assay: SPR; OpenSPR localized SPR; 6His-GtrS^LBD fixed on COOH chip by capture-coupling; 6His-GltB injected at 1000, 500, 250, 125 nM; 50 mM Tris, 50 mM NaCl, pH 7.0, 25 °C; one to one model.
In assay [2] the target is 6His-GltB, the N-terminal 6His-tagged GltB (P. aeruginosa PAO1). The assay can be described thus: SPR; OpenSPR localized SPR; 6His-GltB fixed on COOH chip by capture-coupling; 6His-PctA^LBD (1500-500 nM) or 6His-PA2788^LBD (500-100 nM) injected; 50 mM Tris, 50 mM NaCl, pH 7.0, 25 °C; one to one model.
Assay [3] concerns the target T1, GltB (periplasmic glucose-binding protein) (Pseudomonas aeruginosa, UniProt Q9HZ48).
T1 construct: gene PA3190; 6His-GltB, the N-terminal 6His-tagged GltB
The assay can be described thus: ITC ([…] °C, one-site model); supported by concentration-dependent thermal shift.

The molecule “6His-GltB, the N-terminal 6His-tagged GltB (natural protein)” registered a dissociation constant (Kd) in assay [1] of 100 nM. As for “6His-PctA^LBD, the N-terminal 6His-tagged ligand-binding domain of PctA (residues 30-278) (from UniProt G3XD24 30-278) (domain or fragment)”, the Kd in assay [2] amounted to 800 nM. In the case of `OC[C@H]1OC(O)[C@H](O)[C@@H](O)[C@@H]1O` (stereo partly shown) [glucose], the Kd in assay [3] was determined as 1370 nM.

B1: 6His-PA2788^LBD, the N-terminal 6His-tagged ligand-binding domain of PA2788 (residues 44-179) (domain or fragment)
chain: YLSMSISPETINVAGAQRMLSQKMAREALQLRLGAGDPKALAATIAQYERSAADLDAGNAERNVSRMGAPEIAAQRQKVAQIWGRYRAMLDQVAQPASQVDLRGFSQYSTELLGELNNLVSLMSARADSVQHTQMW
With B1, in assay [2], the Kd amounted to 400 nM.
